Laboratory results published in patent US20240398949A1 (OSLO UNIVERSITETSSYKEHUS HF, published 2024).

Legend:
full-length HER2 = molecular target: T1, full-length HER2 (Homo sapiens (Human), UniProt P04626 23-1255); experiment: flow cytometry on cell lines expressing full-length HER2, goat anti-rat-PE secondary
T1 construct: Endogenous HER2 on cell lines
Method: Cells were washed, pelleted down and resuspended in 100 μl FACS buffer (containing phosphate-buffered saline (PBS), pH 7, 2% FBS, and 2 mM EDTA). […] Cells were washed twice, resuspended in 100 μL FACS buffer containing secondary antibody goat anti-rat-PE (0.26 μg/ml) and Fixable Viability Dye eFluor™ 780 and incubated for 30 minutes in the dark at 4° C. Cells were washed, resuspended in 200 μL FACS buffer, and analyzed on a LSR II flow cytometer (BD Biosciences, Franklin Lakes, NJ, USA). Data were analyzed with FlowJo software (v10.7.1, FlowJo LLC).

[1] = molecular target: T2, Peptide 13 of Table 4 (N-terminal truncation, tryptophan-614 lost); experiment: peptide array on cellulose membrane, truncation series, signal intensity (area under curve), duplicate spots
T2 peptide: KFPDEEGA

[2] = molecular target: T3, Peptide 11 of Table 4 (N-terminal truncation, proline-612 lost); experiment: as above
T3 peptide: IWKFPDEEGA

peptide 4 (FIGURE 3 d/e) = molecular target: T4, peptide 4 (FIGURE 3 d/e); experiment: as above
T4 peptide: PDLSYMPIWKFPDEEGA

[3] = molecular target: T5, Peptide 12 of Table 4 (N-terminal truncation, isoleucine-613 lost); experiment: as above
T5 peptide: WKFPDEEGA

[4] = molecular target: T6, peptide 17 (FIGURE 3 d/e); experiment: as above
T6 construct: also called EEGA
T6 peptide: EEGA

[5] = molecular target: T7, Peptide 10 of Table 4 (N-terminal truncation, methionine-611 lost); experiment: as above
T7 peptide: PIWKFPDEEGA

peptide 2 (FIGURE 3 d/e) = molecular target: T8, peptide 2 (FIGURE 3 d/e); experiment: as above
T8 peptide: VKPDLSYMPIWKFPDEEGA

[6] = molecular target: T9, peptide 16 (FIGURE 3 d/e); experiment: as above
T9 construct: also called DEEGA
T9 peptide: DEEGA

[7] = molecular target: T10, peptide 14 (FIGURE 3 d/e); experiment: as above
T10 construct: also called FPDEEGA
T10 peptide: FPDEEGA

peptide 7 (FIGURE 3 d/e) = molecular target: T11, peptide 7 (FIGURE 3 d/e); experiment: as above
T11 peptide: SYMPIWKFPDEEGA

peptide 3 (FIGURE 3 d/e) = molecular target: T12, peptide 3 (FIGURE 3 d/e); experiment: as above
T12 peptide: KPDLSYMPIWKFPDEEGA

[8] = molecular target: T13, Peptide 1 of Table 4 (HER2 glycine-603 to alanine-622); experiment: as above
T13 construct: Parent peptide of the N-terminal truncation and double-alanine substitution series
T13 peptide: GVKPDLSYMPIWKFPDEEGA

peptide 5 (FIGURE 3 d/e) = molecular target: T14, peptide 5 (FIGURE 3 d/e); experiment: as above
T14 peptide: DLSYMPIWKFPDEEGA

peptide 9 (FIGURE 3 d/e) = molecular target: T15, peptide 9 (FIGURE 3 d/e); experiment: as above
T15 peptide: MPIWKFPDEEGA

[9] = molecular target: T16, Peptide 8 of Table 3 (15mer of the p95HER2 extracellular domain); experiment: peptide array on cellulose membrane, overlapping 15mers, signal intensity (area under curve), triplicate spots
T16 construct: Synthetic peptide immobilized on a cellulose membrane
T16 peptide: DDKGCPAEQRASPLT

[10] = molecular target: T17, Peptide 2 of Table 3 (15mer of the p95HER2 extracellular domain); experiment: as above
T17 construct: Synthetic peptide immobilized on a cellulose membrane; also called KFPDEEGACQPCPIN
T17 peptide: KFPDEEGACQPCPIN

[11] = molecular target: T18, Peptide 1 of Table 3 (15mer of the p95HER2 extracellular domain); experiment: as above
T18 construct: Synthetic peptide immobilized on a cellulose membrane
T18 peptide: MPIWKFPDEEGACQP

[12] = molecular target: T19, Peptide 6 of Table 3 (15mer of the p95HER2 extracellular domain); experiment: as above
T19 construct: Synthetic peptide immobilized on a cellulose membrane
T19 peptide: THSCVDLDDKGCPAE

[13] = molecular target: T20, Peptide 3 of Table 3 (15mer of the p95HER2 extracellular domain); experiment: as above
T20 construct: Synthetic peptide immobilized on a cellulose membrane
T20 peptide: EEGACQPCPINCTHS

[14] = molecular target: T21, Peptide 5 of Table 3 (peptide of the p95HER2 extracellular domain); experiment: as above
T21 construct: Synthetic peptide immobilized on a cellulose membrane
T21 peptide: INCTHSCVDLDDKG

[15] = molecular target: T22, Peptide 4 of Table 3 (15mer of the p95HER2 extracellular domain); experiment: as above
T22 construct: Synthetic peptide immobilized on a cellulose membrane
T22 peptide: CQPCPINCTHSCVDL

[16] = molecular target: T23, Peptide 7 of Table 3 (15mer of the p95HER2 extracellular domain); experiment: as above
T23 construct: Synthetic peptide immobilized on a cellulose membrane
T23 peptide: VDLDDKGCPAEQRAS

binding result [1]: no binding | binding result [2]: binds | binding result (peptide 4 (FIGURE 3 d/e)): binds | binding result [3]: binds | binding result [4]: no binding | binding result [5]: binds | binding result (peptide 2 (FIGURE 3 d/e)): binds | binding result [6]: no binding | binding result [7]: no binding | binding result (peptide 7 (FIGURE 3 d/e)): binds | binding result (peptide 3 (FIGURE 3 d/e)): binds | binding result [8]: binds | binding result (peptide 5 (FIGURE 3 d/e)): binds | binding result (peptide 9 (FIGURE 3 d/e)): binds | binding result [9]: no binding | binding result [10]: no binding | binding result [11]: binds | binding result [12]: no binding | binding result [13]: no binding | binding result [14]: no binding | binding result [15]: no binding | binding result [16]: no binding
B1: Oslo-2 antibody (monoclonal antibody against p95HER2) (antibody, V domains shown)
VH: EVQILETGGGLVKPGGSLRLSCATSGFNFNDYFMNWVRQAPGKGLEWIAQIRNKNYNYATYFAESLEGRFTISRDDSKSSVYLQVNSLRAEDTALYYCTELRYDYWGQGVMVTVSS
VL: DIVMTQSPFSLAVSEGEMVTINCKSSQSLLSSGNQKNNLAWYQQKPGQSPKLLIYYASTRQSGVPDRFIGSGSGTDFTLTISDVQAEDLADYYCLQHYSSPYTFGAGTKLELK
notes: Monoclonal antibody from a rat hybridoma (mClone 1), detected with goat anti-rat-PE; also called the antibody of interest; the antibody
binding result (full-length HER2): no binding (tested: 10 µg/ml (not on the sheet))
